Experimental data: paper PMC6719327 (Applied Microbiology and Biotechnology, 2019)
Numbering of substitutions follows the chain as printed. Names and notes keep the numbering of the source.

B1: anti-GPCR (ETaR) antibody 80H4, full-length, wild type (antibody, V domains shown)
VH: EVQLLESGGGLVQPGGSLRLSCAASGFTFSSYGMSWVRQAPGKGLEWVSAISTNGATAYYADSVKGRFTISRDNSKNTLYLQMNSLRAEDTAVYYCATEKGAMGYWGQGTLVTVSS
VL: DIVMTQTPLSLSVTPGQPASISCRSSQNIVHSTGNTYLEWYLQKPGQSPQLLIYKVSNRFSGVPDRFSGSGSGTDFTLKISRVEAEDVGVYYCFQGSHFPFTFGQGTKVEIK
notes: heavy-chain variable region of 80H4; heavy-chain constant region (HC); labelled by anti-human IgG; light-chain variable region of 80H4; light-chain constant region (LC); also called WT; full-length wild-type antibody; source: Expi293F, heavy and light chains co-expressed, purified from supernatant (Protein A); copies: 2 + 2
B2: anti-GPCR (ETaR) antibody 80H4, full-length, mutant D73H (antibody, V domains shown)
VH: B1 VH with D73H
VL: B1 VL
notes: heavy-chain variable region as the heavy chain of m13; heavy-chain constant region as in m13; light-chain variable region as the light chain of m13; light-chain constant region as in m13; source: Expi293F, heavy and light chains co-expressed, purified from supernatant (Protein A); copies: 2 + 2
B3: anti-GPCR (ETaR) antibody 80H4, full-length, mutant S115N-S30R (antibody, V domains shown)
VH: B1 VH with S30R, S115N
VL: B1 VL
notes: as for B2
B4: anti-GPCR (ETaR) antibody 80H4, full-length, mutant S115N-S30R-D73H (antibody, V domains shown)
VH: B1 VH with S30R, D73H, S115N
VL: B1 VL
notes: heavy-chain variable region as the heavy chain of m13; heavy-chain constant region as in m13; light-chain variable region as the light chain of m13; light-chain constant region as in m13; also called S115N-D73H-S30R; source: Expi293F, heavy and light chains co-expressed, purified from supernatant (Protein A); copies: 2 + 2
B5: anti-GPCR (ETaR) antibody 80H4, scFv-His, wild type (scFv, V domains shown)
VH: B1 VH
VL: B1 VL
notes: heavy-chain variable region of 80H4; (G4S)3 linker; light-chain variable region of 80H4; Order HV-(G4S)3-LV; made with a signal peptide (SP); also called WT; anti-GPCR-scFv-His; source: Expi293F, transfected, purified from supernatant (Ni-NTA); not shown: His tag, C-terminal, kept
B6: anti-GPCR (ETaR) antibody 80H4, scFv-His, mutant N28Y (scFv, V domains shown)
VH: B1 VH
VL: B1 VL with N28Y
notes: heavy-chain variable region as in m3; (G4S)3 linker; light-chain variable region as in m3; source: Expi293F, transfected, purified from supernatant (Ni-NTA); not shown: His tag, C-terminal, kept
B7: anti-GPCR (ETaR) antibody 80H4, scFv-His, mutant T113A-V64M (scFv, V domains shown)
VH: B1 VH with V64M, T113A
VL: B1 VL
notes: as for B6
B8: anti-GPCR (ETaR) antibody 80H4, scFv-His, mutant T113A-V64M-N28Y (scFv, V domains shown)
VH: B1 VH with V64M, T113A
VL: B1 VL with N28Y
notes: heavy-chain variable region as in m3; (G4S)3 linker; light-chain variable region as in m3; Combination of N28Y and T113A-V64M made by the authors; source: Expi293F, transfected, purified from supernatant (Ni-NTA); not shown: His tag, C-terminal, kept
B9: anti-GPCR (ETaR) antibody 80H4, full-length, mutant with six mutations (S115N-S30R-D73H combined with T113A-V64M-N28Y) (antibody, V domains shown)
VH: B1 VH with S30R, V64M, D73H, T113A, S115N
VL: B1 VL with N28Y
notes: heavy-chain variable region as the heavy chain of m13; heavy-chain constant region as in m13; light-chain variable region as the light chain of m13; light-chain constant region as in m13; also called the mutant with these six mutations; the full-length antibody clone containing the 6 point mutations; source: Expi293F, heavy and light chains co-expressed, purified from supernatant (Protein A); …
B10: anti-GPCR (ETaR) antibody 80H4, scFv-Fc, wild type (Fc fusion)
VH: B1 VH
VL: B1 VL
notes: heavy-chain variable region as in m3; (G4S)3 linker; light-chain variable region as in m3; also called wild-type scFv-Fc; anti-GPCR-scFv-Fc; source: Expi293F, transfected, purified from supernatant (Protein A); not shown: Fc, C-terminal, kept
B11: anti-GPCR (ETaR) antibody 80H4, scFv-Fc, mutant T113A-V64M-N28Y (Fc fusion)
VH: B1 VH with V64M, T113A
VL: B1 VL with N28Y
notes: heavy-chain variable region as in m3; (G4S)3 linker; light-chain variable region as in m3; also called mutant scFv-Fc; source: Expi293F, transfected, purified from supernatant (Protein A); not shown: Fc, C-terminal, kept
B12: anti-GPCR (ETaR) antibody 80H4, full-length, mutant T113A-V64M-N28Y (antibody, V domains shown)
VH: B1 VH with V64M, T113A
VL: B1 VL with N28Y
notes: heavy-chain variable region as the heavy chain of m13; heavy-chain constant region as in m13; light-chain variable region as the light chain of m13; light-chain constant region as in m13; also called T113A-V64M-N28Y mutant full-length antibody; source: Expi293F, heavy and light chains co-expressed, purified from supernatant (Protein A); copies: 2 + 2
B13: anti-GPCR (ETaR) antibody 80H4, scFv-His, mutant R38Q (scFv, V domains shown)
VH: B1 VH with R38Q
VL: B1 VL
notes: as for B6
B14: anti-GPCR (ETaR) antibody 80H4, scFv-His, mutant T113A-R38Q (scFv, V domains shown)
VH: B1 VH with R38Q, T113A
VL: B1 VL
notes: heavy-chain variable region as in m3; (G4S)3 linker; light-chain variable region as in m3; also called T113A-R38Q scFv-His; source: Expi293F, transfected, purified from supernatant (Ni-NTA); not shown: His tag, C-terminal, kept

Molecular target: T1, endothelin A receptor (ETaR) (Homo sapiens (assumed), UniProt P25101)
T1 construct: endothelin A receptor (ETaR), a GPCR; plasmid and cells were gifts from Gmax Biopharm LLC; also called GPCR; ETaR-expressing CHO cells; source: CHO cells stably expressing and displaying ETaR (provided by Gmax Biopharm LLC); on cells, and in vesicles prepared from them
T1 sequence (P25101 21-427): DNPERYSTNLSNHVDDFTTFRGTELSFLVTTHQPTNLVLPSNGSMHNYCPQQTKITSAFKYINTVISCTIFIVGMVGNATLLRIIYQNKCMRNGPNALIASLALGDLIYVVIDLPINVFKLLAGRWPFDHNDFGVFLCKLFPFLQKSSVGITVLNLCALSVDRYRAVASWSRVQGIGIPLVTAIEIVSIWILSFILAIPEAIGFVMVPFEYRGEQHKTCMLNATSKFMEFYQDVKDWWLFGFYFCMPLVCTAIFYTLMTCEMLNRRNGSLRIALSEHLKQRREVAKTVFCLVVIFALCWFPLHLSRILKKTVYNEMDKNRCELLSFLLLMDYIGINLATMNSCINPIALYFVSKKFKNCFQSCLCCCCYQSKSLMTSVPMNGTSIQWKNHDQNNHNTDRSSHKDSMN
Test: flow cytometry on cells; competition of unlabelled full-length antibodies, obtained similarly as for scFv; L = 13 nM; Ki = IC50/(1 + L/Kd)
Conditions: one partner purified

Row | Binder | IC50 | Ki
1 | B1 | 50.1 nM | 31.3 nM
2 | B2 | 30.6 nM | 15.7 nM
3 | B3 | 22.4 nM | 10.2 nM
4 | B4 | 16 nM | 6.2 nM

Molecular target: T1, endothelin A receptor (ETaR)
Test: flow cytometry on cells; competition: unlabelled scFv at 0.01 to 316 nM against FITC-labeled wild-type anti-GPCR at L = 150 nM on ETaR-expressing CHO cells, 1 h at 4 °C; Ki = IC50/(1 + L/Kd)
Conditions: one partner purified

Row | Binder | IC50 | Ki
5 | B5 | 568 nM | 300 nM
6 | B6 | 210 nM | 75.1 nM
7 | B7 | 227 nM | 83.4 nM
8 | B8 | 170 nM | 22.1 nM

Molecular target: T2, ETaR-GFP (UniProt P25101)
T2 construct: endothelin A receptor (ETaR) with GFP fused to its C-terminus (in cytosol); also called ETaR cells; ETaR-GFP cells; source: CHO cells stably expressing ETaR-GFP (provided by Gmax Biopharm LLC; clone S-33 for vesicles); on cells, and in vesicles prepared from them; not shown: GFP, C-terminal, kept
T2 sequence (P25101 21-427): as above
Test: flow cytometry on cells; cells stably expressing ETaR-GFP incubated with purified full-length or scFv-Fc antibodies for 30 min, then PE-conjugated anti-IgG (Fig. 4c, 4d, 5b)
Conditions: one partner purified

Row | Binder | binding result
9 | B9 | binds

Molecular target: T1, endothelin A receptor (ETaR)
Test: flow cytometry on cells; Ki of purified scFv-Fc on ETaR-expressing cells; tracer and L not told for this format
Conditions: one partner purified

Row | Binder | Ki
10 | B10 | 251 nM
11 | B11 | 40.2 nM

Molecular target: T1, endothelin A receptor (ETaR)
Test: flow cytometry on cells; purified scFv-His at 1 to 316 nM on ETaR-expressing CHO cells, 1 h at 4 °C; FITC-conjugated anti-His; Kd from the dose-response curve (GraphPad PRISM 5.0)
Conditions: one partner purified

Row | Binder | Kd
12 | B5 | 169 nM
13 | B6 | 83.5 nM
14 | B7 | 87 nM
15 | B8 | 22.4 nM

Molecular target: T1, endothelin A receptor (ETaR)
Test: flow cytometry on cells; competition of unlabelled full-length antibodies, obtained similarly as for scFv; L = 13 nM; Ki = IC50/(1 + L/Kd)
Conditions: one partner purified
Remark: another data set of the same source

Row | Binder | Ki
16 | B12 | 15.6 nM

Molecular target: T2, ETaR-GFP
Test: flow cytometry on cells; cells expressing ETaR-GFP incubated with purified scFv-His for 30 min, then anti-his-PE antibody (Fig. 4b)
Conditions: one partner purified

Row | Binder | binding result
17 | B13 | binds
18 | B14 | binds

Molecular target: T1, endothelin A receptor (ETaR)
Test: flow cytometry on cells; purified full-length antibodies titrated on ETaR-expressing CHO cells as for scFv; PE-conjugated anti-IgG; Kd from the dose-response curve
Conditions: one partner purified

Row | Binder | Kd
19 | B1 | 21.5 nM
20 | B2 | 13.6 nM
21 | B3 | 10.8 nM
22 | B4 | 8.27 nM
